We go through eight molecules from article PMC8196545 (Cell reports, 2021).

Sequences and labels used below:
B1: c10969 (antibody, V domains shown)
VH: AGHLVESGGKLISPGGSLSLSCVASGFTFKNAHMTWVRQVPGKGLEWIALMKSHADGSHTDYSPSVRDRCAISRDDSTSSLFLHLYNLQLDDTGIYYCVHLSSPDEWGLGTAVTVSS
VL: HIVLTQSPVTLSGSQGDTVALSCRANQSLRSHLAWYQHRPGQTPKVLIYEVSRRRPATPPRFSGSGSGTEFTLVIRGLEPEDSAVYYCQQGDFWPFSFGQGTNLEIT
B2: c5616 (antibody, V domains shown)
VH: LVRLAESGGGVVRPGESLTLSCATSGFSFSSYGMHWVRQIPGKGLEWVAVIWNDGSRRYYSDSVQGRFTIAKDTSNKTLSLHMRDLQVGDTAVYFCARAYGPQSEMDSWGLGTLVTVSS
VL: SSELTQPPSVSVSPGQTAILTCVGDILPRKHAYWYRQRAGRAPTLIVFGDNNRPSGIPARFSGFTSGTVATLVITAAQVDDGGDYFCYSADNSGNHRGVFGGGTRLTIL
B3: c5358 (antibody, V domains shown)
VH: RLQLRESGPALVRPSETLSLTCTVSGGPTSDFFWSWVRQAAGGRLEWIGRIYASDGSTKMNPALHTRIGLELNTLENIFNLRLLSVTAADTAVYFCVREEVHGYDSWNSDSGTYNGIDAWGLGTPVTVSS
VL: SVVLTQPPSVSGSPGETVIISCTRSSGAIPSRHVQWYRQRPGGLPARVIFANSQRPHWVPDRYSASVDASSNTASLTISGLQPDDEAKYFCQSFDDTRHHHIVFGGGTEVIVV
B4: c5260 (antibody, V domains shown)
VH: QVRLQESGPRLVKPSETLSLTCTVSGASVTSYSWSWIRYSAERGLEWIGRILPTIGSNRANPSLHFRVGMSADTSKNLLSLRLTSLTAADTAIYFCARDLVRDYDSWGGDYSTFHGIDVWGQGTTVIVSL
VL: NSLLTQPPSVSESPGKTVNISCTRTSGAITWDFVQWYQKRPGSVPTVVIYANDRRPSGVPDRFSGSIDSSSNSAALTISRLKTEDEAEYYCQSFHPRSHVVFGGGTKLTVL
B5: c807 (antibody, V domains shown)
VH: QVQLQESAPRLVTTSETLSLTCTVFGGQFYPFFYSWVRQSPGGKLQWIGRKYSSTGSMRTNPSLHTRVGMPLDHSKSQIGLTMSSMTAADTGIYYCVRDIMREFDSVDGSGGVYGGVDVWGRGTTVTVSS
VL: NFMLTQPPSVSESPGKTVTISCTRNSGSIASNSVYWYRQRPGSPPTTLIHDNNRRPTGVPDRFSASIDTSSNSASLTISSLKTEDEADYYCQSYDNGNHVIFGGGTNLLVL
B6: c10819 (antibody, V domains shown)
VH: EMRLEESGGALVKPGGSLRLSCVASGFKLSEWSLMWVRQAPGKGLQWVSSISLNQDYISYAGSVRGRFDVFRDRTQTSLLLNMNKLKTEDTGIYFCARVHAWRYFDWVNRRSPVEKVLSIDLWGRGTLVIVSS
VL: SGATQPPSVSVSKGETARITCSGVELSSQYVSWYRQRPGQSPVLVMFHNNSRASRIPERFSASDSGDTATLTIAGAQDVDEAEYYCQTWDSKNYVTFGGGTKLTVL
B7: c5299 (antibody, V domains shown)
VH: QVRLLESGPGLVKPSGTLSLTCHVSGASVTSFSWSWVRQSAQKGLQWLGRILPTNGSNKSNPSLHPRVGLAADTSTNQLSLRLTSVTAADSGIYFCARDFVRDYDSWASDYSTLHGIDVWGPGTSVTVSF
VL: NSLLTQPPSVSESPGKTVTISCTRTSGDITWDFVQWYRHRPGTSPTLVIFANDRRASGVPDRFSGSIDSSSNTAALTISGLKTDDEADYYCQSFHPRYHVVFGGGTKLTVL
B8: c26412 (antibody, V domains shown)
VH: EVRLVQSGGGVVRPGGSLRLSCSASGFSFSRSAMSWVRQAPGKELQWVAAISGSGNSHHISDAFRGRVSISRNNENDSVFLQMSNLRLDDTGKYFCAKSEGGRSGWYYWATEYFQHWGQGAVVTVSS
VL: SSELTQPPSVSVSPGQTARISCSGHTLPQRYATWYQQKPGRAPLLIIFGNNERPSGIPARFSVSASGKSAILTITGVQAEDEGDYICQSSDGSHTSLFFGGGTKLTVL

The target of the experiment is HIV-1 NL4-3 Env on infected cells (HIV-1 group M subtype B, NL4-3 (pNL4-3 …, strain)).
Take B1: the binding result is listed as “binds”.
Next, B2: “binds”.
Consider B3, for which the binding result was “binds”.
The same measure for B4: “binds”; for B5: “binds”.
The same measure for B6: “binds”.
Next, B7: “binds”.
In the case of B8, the binding result is “binds”.
